A short description of the data set: yeast display, Sf9 membrane polyspecificity reagent, FACS + sequencing; frameworks hold sequencing errors. The procedure, abridged:
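A synthetic nanobody library was expressed on Saccharomyces cerevisiae BJ5465 by galactose induction for 36–48 hours. The library was stained for 1 hour at 4 °C with 10% biotinylated, detergent-solubilized Sf9 membrane reagent and enriched with streptavidin microbeads before FACS. Low and high (top ~1%) gates were set on anti-HA fluorescence for expression and streptavidin fluorescence for reagent binding, and each polyreactivity label reflects the gate of origin.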
Turning to “QVQLVESGGGLVQAGGSLRLSCAASGITFFVYAMGWYRQAPGKERELVAAISSTASTNYADSVKGRFTISRDNAKYTVYLQMNSRKPEDTAVYYCNAGVWSLGTYWQFDYWGQGTQVTVSS”, the “polyreactivity (PSR sort gate)” value was “high polyreactivity”.

As for “QVQLVESGGGLVQAGGSLRLSCAASGITFFYYAMGWYRQAPGKERELVAAINWSGRTYYADSVKGRFTISRDNAKNTVYLQMNSLKPEDTAVSYCAAVTYGPGVSGMDYWGQGTQVTVSS”, the “polyreactivity (PSR sort gate)” value is on record as “low polyreactivity”.

Turning to “QVQLVESGGGLVQAGGSLRLSCAASGITFFYYAMGWYRQAPGKERELVAAISTSGGRTYYADSVKGRFTISRDNAKNTVYLQMNSLKPEDTAVYYCAARSRVPPAGPRYDYWGQGTQVTVSS”, the “polyreactivity (PSR sort gate)” value is “high polyreactivity”.

Regarding “QVQLVESGGGLVQAGGSLRLSCAASGITFGANTMGWYRQAPGKERELVAAITISGGITHYADSVKGRFTISRDNAKNTVYLQMNSLKPEDTAVYYCAAGAYWRLYPYRQRNGGRMYYWGQGTQVTVSS”, the “polyreactivity (PSR sort gate)” value is listed as “low polyreactivity”.

For the sequence “QVQLVESGGGLVQAGGSLRLSCAASGITFGAYAMGWDRQAPGKERELVASISSSGSTYADSVKGRFTISRDNAKTTVYLQMNSLKPEDTAVYYCNAVGFQANDYNYWRQGTQVTVSS”, the “polyreactivity (PSR sort gate)” value is recorded as “low polyreactivity”.

As to “QVQLVESGGGLVQAGGSLRLSCAASGITFGAYTMGWYRQAPGKERELVAAISGSGGSTYYADSVKGRFTISRDNAKNTVYLQMNSLKPEDTAVTYCNKVLSPHLGCSFDYWGQGTEVTVSS”, the “polyreactivity (PSR sort gate)” value is given as “high polyreactivity”.

In the case of “QVQLVESGGGLVQAGGSLRLSCAASGITFGDYAMVWYRQAPGKERELVAAITSGGSTYYADSVKGRCTISRDNAKNTVYLQMNILKPEDTAVYYCNRQYNQWIHYYYRMDYWGQGTQVTVSS”, the “polyreactivity (PSR sort gate)” value is recorded as “high polyreactivity”.

For the sequence “QVQLVESGGGLVQAGGSLRLSCAASGITFGDYAMVWYRQAPGKERELVAGINWSGDGTYYADSLKGRFTISRDKAKNTVYLQMNSLKPEDSAVYYCAAETFYDYGGYDYWGQGTQVTVSS”, the “polyreactivity (PSR sort gate)” value is “low polyreactivity”.

For “QVQLVESGGGLVQAGGSLRLSCAASGITFGDYTMGWYRQAPGKERELVAVISSGGNTNYADSVKGRFTISRDNAKNTVYLQMNSLKPEDTAVYYCAAVIASYGTRYRGGYTRYYYWGQGTQVTVSS”, the “polyreactivity (PSR sort gate)” value is reported as “high polyreactivity”.

As for “QVQLVESGGGLVQAGGSLRLSCAASGITFGHYAMGWYRQAPGKERQLVAGINWSGDGRYYADSVKGRFTISRDNAKNTVYLQMNSLKPEDTAVYYCDAETFYDYGGYDYWGQGTQVTVSS”, the “polyreactivity (PSR sort gate)” value is recorded as “low polyreactivity”.

“QVQLVESGGGLVQAGGSLRLSCAASGITFGHYTMGWYRQAPGKEWDLVAAISWSGGSTYYADSVKGRFTISRDNAKYTVYLQMNSLKPEDTAVYYCNRVKRVIASYDSDYWGQGTQVTVSS”: the “polyreactivity (PSR sort gate)” value is “low polyreactivity”.

Regarding “QVQLVESGGGLVQAGGSLRLSCAASGITFGIYAMGWYRQAPGKERELVAAIDGSDGSTYYADSVKGRFTISRDNAKNTVYLQMKSLKPEDTAVYYCNAENGYSWDVFSDYWGQGTQVTVSS”, the “polyreactivity (PSR sort gate)” value is reported as “low polyreactivity”.

With “QVQLVESGGGLVQAGGSLRLSCAASGITFGIYVMGWYRPAPGKEWELVATISRSDDNTYYADSVKGRFTISRDNAKNTVYLQMNSLKPEDTAVYYCAAYWYDLYWDYYTFDYWGQGTQVTVSS”, the “polyreactivity (PSR sort gate)” value is “low polyreactivity”.

Consider “QVQLVESGGGLVQAGGSLRLSCAASGITFGKNAMGWYRQAPGKERELVATIRRSGGSTYADSVKGRFTISRDNAKNTVYLQMNSLKPEDTAVYYCNARSWNTYNYWGQGTQVTVSS”, for which the “polyreactivity (PSR sort gate)” value is “high polyreactivity”.

“QVQLVESGGGLVQAGGSLRLSCAASGITFGNYAMGWYRQAPGKERELVAAITGSGGRTYYADSVKGRFTISRDNAKNTVYLQMNSLKPEDTAVYYCNRRQYGRKKQYDYWGQGTQVTVSS”: the “polyreactivity (PSR sort gate)” value is recorded as “high polyreactivity”.

As to “QVQLVESGGGLVQAGGSLRLSCAASGITFGPNAMGWYRQAPGKERELVAAISWRGGSTYYADSVKGRFTISRDNAKNTVYLQMNSLKPEDTAVYYCAKVQIPASYIRYDYWGQGTQVTVSS”, the “polyreactivity (PSR sort gate)” value is “low polyreactivity”.

As to “QVQLVESGGGLVQAGGSLRLSCAASGITFGPYAMGWYRQAPGKERELVAAISAGGGSTYYADSVKGRFTISRDNAKNTVYLQMNSLKPEDTAVYYCAAYLLHHYGGPEYYYWGQGTQVTVSS”, the “polyreactivity (PSR sort gate)” value was “high polyreactivity”.

For the sequence “QVQLVESGGGLVQAGGSLRLSCAASGITFGPYAMGWYRQAPGKERELVAAISYSGGRTYYADSVKGRFTISRDNAKNTVYLQMNSLKPEDTAVYFCARRYGYFGYEYDYWGQGTQVTVSS”, the “polyreactivity (PSR sort gate)” value is on record as “high polyreactivity”.

For the sequence “QVQLVESGGGLVQAGGSLRLSCAASGITFGRHTMGWYRQAPGKERELVAAIDSGGNTYADSVKGRFTISRDNAKNTVYLQMNSLKPEDTAVYYCAVDGGEFSSYGYWGQGTQVTVSS”, the “polyreactivity (PSR sort gate)” value is recorded as “low polyreactivity”.

On to “QVQLVESGGGLVQAGGSLRLSCAASGITFGRNAMGWYRQAPGKERELVAAISRGGSTNYADSVKGRFTISRDNAKNTVYLQMNSLKPEDTAVYYGNARSWPHGSWIPIHRRSGYWGQGTQVTVSS”, for which the “polyreactivity (PSR sort gate)” value is listed as “high polyreactivity”.

“QVQLVESGGGLVQAGGSLRLSCAASGITFGRNTMGWYRQAPGKERELVAAIDSGGNTYADSVKGRFTISRDNAKNTVYLQMNSLKPEDTAVYYCAVDGGEFSSSGYWGQGTQVPVSS”: the “polyreactivity (PSR sort gate)” value is recorded as “low polyreactivity”.

As to “QVQLVESGGGLVQAGGSLRLSCAASGITFGRNTMGWYRQAPGKERELVAAIDSGGNTYADSVKGRFTISRDNEKNTVYLQMNSLKPEDTAVYYCAVDCGEFSSYGYWGQGTQVTVSS”, the “polyreactivity (PSR sort gate)” value is “low polyreactivity”.

With “QVQLVESGGGLVQAGGSLRLSCAASGITFGRYAMGWYRQAPGKERELVAAITWSGGSTYYADSVKGRFTISRDNSKNTVYLQMNSLKPEDTAVYYCAATWYPGRAGYYYWGQGTQVTVSS”, the “polyreactivity (PSR sort gate)” value is “high polyreactivity”.

Take “QVQLVESGGGLVQAGGSLRLSCAASGITFGSYAMGRYRQAPGKERELVAAIDTSGDDTYYADSVKGRFTISRDNAKNTVYLQMNSLKPEDTAVYYCAAEFPSAEVDYWGQGTQVTVSS”: the “polyreactivity (PSR sort gate)” value is given as “low polyreactivity”.

“QVQLVESGGGLVQAGGSLRLSCAASGITFGSYAMGWYRQAPGKEREFVAAISLSGGNTYYADSEKGRFTISRDNAKNPVYLQMNSLKPEDTAVYYCAADPFSSYYKMEYWGQGTQVTVSS”: the “polyreactivity (PSR sort gate)” value is reported as “high polyreactivity”.

For the sequence “QVQLVESGGGLVQAGGSLRLSCAASGITFGSYDMGWYRQAPGKERELVAAIDSDGGTYYADSVKGRFTISRDNAKNTVYLQMNSLKPEDTAVYYCAALLRSFPPYSFYYWGQGTQVTVSS”, the “polyreactivity (PSR sort gate)” value is recorded as “high polyreactivity”.

For the sequence “QVQLVESGGGLVQAGGSLRLSCAASGITFGTYTMGWYRQAPGKERELVAAISRSGTGTYYADSVKGRFTISRDNAKNTVYLQMNSLKPEDTAVYYCAAAGYIYYGYEYLYGFEYWGQGTQVTVSS”, the “polyreactivity (PSR sort gate)” value is reported as “high polyreactivity”.

With “QVQLVESGGGLVQAGGSLRLSCAASGITFGVYAMGWYRQAPGKERELVAAISSGDSTYYADSVKGRFTISRDNAKNTVYLQMNSLKPEDTAVYYCNAYYGVFYWDAEYGYDYWGQGTQVTVSS”, the “polyreactivity (PSR sort gate)” value is listed as “high polyreactivity”.

For the sequence “QVQLVESGGGLVQAGGSLRLSCAASGITFGWYAMGWYRQAPGKERELVAAISGRGGRTYYADSVKGRFKISRDNAKNTVYLQMNSLKPEDTAVYYCAARARRWSYITGSYVLIEYEYWGQGTQVTVSS”, the “polyreactivity (PSR sort gate)” value was “high polyreactivity”.

“QVQLVESGGGLVQAGGSLRLSCAASGITFGWYAMGWYRQAPGKERELVAAISGRGGRTYYADSVKGRFTISRDNAKYTVYLQMNSLKPEVTAVYYCAARARRWSYITGSYVLIEYEYWGQGTQVTVSS”: the “polyreactivity (PSR sort gate)” value is recorded as “high polyreactivity”.

In the case of “QVQLVESGGGLVQAGGSLRLSCAASGITFGYNAMGWYRQAPGKERELVASISYSGDSTYYADSVKGRFTISRDNAKNTVYLQMNSLKPEDTAVYYCNVRNRPGGEINDYDYWGQGTQVTVSS”, the “polyreactivity (PSR sort gate)” value was “low polyreactivity”.

For the sequence “QVQLVESGGGLVQAGGSLRLSCAASGITFGYNAMGWYRQAPGTEREFVAGISWSGGSTYYADSVKGRFTISRDNAKNTVYLQMNSLKPEDTAVYYCAKLARGGWYGGGRSLSYGYWGQGTQVTVSS”, the “polyreactivity (PSR sort gate)” value is given as “high polyreactivity”.

For “QVQLVESGGGLVQAGGSLRLSCAASGITFGYYAMGWYRQAPGKEREMVAAISFTGASTYYADSVKGRFTISRDNAKNTVYLQMNSLKPEDTAVYYCAADPYVPYQDFLSGFDYWGQGTQVTVSS”, the “polyreactivity (PSR sort gate)” value is reported as “low polyreactivity”.

As to “QVQLVESGGGLVQAGGSLRLSCAASGITFGYYDMGWYRQAPGKERELVASISSGGNTNYADSVKGRFTISRDNAKNTVYLQMNSLKPEDTAVYYCNVRYWGFYDYDYWGQGTQVTVSS”, the “polyreactivity (PSR sort gate)” value was “low polyreactivity”.

On to “QVQLVESGGGLVQAGGSLRLSCAASGITFHKYAMGWYRQAPGKERELVAAISSGGGTYYADSVKGRFTISRDNAKNTVYLQMNSLKPEDTAVYYCNADIEWLWVRYDYWGQGTQVTVSS”, for which the “polyreactivity (PSR sort gate)” value is reported as “high polyreactivity”.

“QVQLVESGGGLVQAGGSLRLSCAASGITFIGYPMGWYRQAPGKERELVASITSGANTNYADSVKGRFTISRDNAKNTVYLQMNSLKPEDTAVYYCAAPEHGTYANILGEPLDYWGQGTQVTVSS”: the “polyreactivity (PSR sort gate)” value is on record as “low polyreactivity”.

“QVQLVESGGGLVQAGGSLRLSCAASGITFIKNAMGWYRQAPGKERELVAAISRSGGRTYYADSVKGRFTISRDNAKNTVYLQMNSLKPEYTAVYYCAAVTQRSYIYDYWGQGTQVTVSS”: the “polyreactivity (PSR sort gate)” value is “high polyreactivity”.

For “QVQLVESGGGLVQAGGSLRLSCAASGITFIRNGMGWYRQAPGKERELVAAISYTGARTYYADSVKGRFTISRDNAKNTVYLQMNSLKPEDNAVYYCAAEVRTRYLYSFRWYDYWGEGTQVTVSS”, the “polyreactivity (PSR sort gate)” value is on record as “low polyreactivity”.

For the sequence “QVQLVESGGGLVQAGGSLRLSCAASGITFISYVMGWYRQAPWKERELLAAISKRGGSTYYADSVKGRFTISRDNAKNTVYLQMNSLKPEDTAVYYCAAKTIPWSVGYDYWGQGTQVTVSS”, the “polyreactivity (PSR sort gate)” value is “high polyreactivity”.

For the sequence “QVQLVESGGGLVQAGGSLRLSCAASGITFKFYAMGWYRQAPGKEREWVATISWSGGITYYADSVKGRFTISRDNAKNTVYLQMNSLKPEDTAVYYCAADGPFTPRYYYWGQGTQVTVSS”, the “polyreactivity (PSR sort gate)” value is reported as “low polyreactivity”.

Values taken from the nanobody polyreactivity screen of Harvey et al. (2022).
